The source of these data is PMC4961952 (Scientific Reports, 2016).

For orientation: stoichiometry N means a count of units in the complex or per binding partner.

This data set concerns the molecule itself. The data set is described as follows: SEC; analytical gel filtration of the TEV-cleaved fusion protein on a Superdex 200 Increase 10/300 column. (In general: Size exclusion chromatography separates by hydrodynamic size, large species first.)

B1: TH1(ZZ): recombinant human tyrosine hydroxylase isoform 1, purified on TALON resin as His6-ZZ-TH1 and cleaved by TEV protease (enzyme)
chain: not shown
notes: residues glycine and alanine left in front of the starting methionine after removal of the fusion partner (told in words); tyrosine hydroxylase isoform 1 (TH1), human, 497 residues (Met1-Gly497); cDNA from pET-TH cloned into pET-ZZ-1a; extra glycine in position 2 from cloning; numbers count on: human TH1; Contains cobalt from the TALON resin (0.70 mol/mol subunit); After cleavage the chain is the …
Turning to B1, the “stoichiometry N” value came to 4.

B2: TH1(MBP): recombinant human tyrosine hydroxylase isoform 1, purified on amylose resin as His6-MBP-TH1 and cleaved by TEV protease (enzyme)
chain: not shown
notes: residues glycine and alanine left in front of the starting methionine after removal of the fusion partner (told in words); tyrosine hydroxylase isoform 1 (TH1), human, 497 residues (Met1-Gly497); cDNA from pET-TH cloned into pET-MBP-1a; extra glycine in position 2 from cloning; numbers count on: human TH1; Iron-containing preparation (0.25 mol/mol subunit), no cobalt; After cleavage the chain is …
Turning to B2, the “stoichiometry N” value stood at 4.
